Measured values published in patent US12662530 (SPHINGOTEC, dated 2026).
Like-named read-outs stand apart in the source and are kept apart here. Where no end group is shown, it is not given here.

Experiments:
Experiment in all cases: cell-based or functional assay
[1] = molecular target: T1, human recombinant adrenomedullin receptor (CRLR+RAMP3) (human)
[2] = molecular target: T2, Adrenomedullin 1-52-Gly (ADM-Gly) (human, not fully specified)
T2 peptide: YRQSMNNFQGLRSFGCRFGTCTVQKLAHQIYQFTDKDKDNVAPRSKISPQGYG

[3] = molecular target: T1, human recombinant adrenomedullin …; remark: listed apart in the source

T1 sequence (Q16602 whole entry, chain 1 of 2): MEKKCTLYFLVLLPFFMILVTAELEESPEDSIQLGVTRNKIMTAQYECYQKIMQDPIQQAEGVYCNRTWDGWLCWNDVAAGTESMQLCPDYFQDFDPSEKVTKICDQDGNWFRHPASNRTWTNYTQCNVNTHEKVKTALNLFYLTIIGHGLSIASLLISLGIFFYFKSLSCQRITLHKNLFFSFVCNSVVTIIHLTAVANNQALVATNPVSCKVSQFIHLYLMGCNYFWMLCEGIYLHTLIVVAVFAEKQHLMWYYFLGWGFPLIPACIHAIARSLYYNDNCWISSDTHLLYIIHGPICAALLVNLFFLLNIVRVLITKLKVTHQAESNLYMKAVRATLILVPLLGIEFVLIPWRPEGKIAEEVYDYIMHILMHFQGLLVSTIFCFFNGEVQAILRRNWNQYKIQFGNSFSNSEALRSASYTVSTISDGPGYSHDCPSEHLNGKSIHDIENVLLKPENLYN
T1 sequence (O60896 whole entry, chain 2 of 2, further chain): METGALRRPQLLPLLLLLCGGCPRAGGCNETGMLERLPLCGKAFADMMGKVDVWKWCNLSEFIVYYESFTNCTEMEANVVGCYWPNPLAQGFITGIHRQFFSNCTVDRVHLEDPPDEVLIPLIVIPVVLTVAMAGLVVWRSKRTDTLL

Question: How did the “EC50 (read off the curve), cAMP stimulation” value [1] turn out when YRQSMNQGSRSNGCRFGTCTFQKLAHQIYQLTDKDKDGMAPRNKISPQGY-NH2 (ends and bridges not checked) [Mouse ADM 1-50] was run?
Answer: ~0.08 nM

B1: HAM8101 (antibody, human IgG1, kappa, V domains shown)
VH: QVQLVQSGAEVKKPGSSVKVSCKASGYTFSRYWIEWVRQAPGQGLEWIGEILPGSGSTNYNQKFQGRVTITADTSTSTAYMELSSLRSEDTAVYYCTEGYEYDGFDYWGQGTTVTVSS
VL: DVVLTQSPLSLPVTLGQPASISCRSSQSIVYSNGNTYLEWYLQRPGQSPRLLIYRVSNRFSGVPDRFSGSGSGTDFTLKISRVEAEDVGVYYCFQGSHIPYTFGGGTKLEIKR
Question: B1 was tested. Which “formation of bio-ADM from ADM-Gly by native human plasma PAM after 90 minutes, with 300 µg/mL HAM8101 against without” value [2] did it give?
Answer: 4 fold

B2: mature human Adrenomedullin (Human ADM 1-52) (peptide)
peptide: YRQSMNNFQGLRSFGCRFGTCTVQKLAHQIYQFTDKDKDNVAPRSKISPQGY-NH2
modifications: ends and bridges not checked
Question: With B2 as the binder, how does the “EC50 (read off the curve), cAMP stimulation” value [3] read?
Answer: ~1 nM
